# Source: paper PMC9692563, “The HIV-1 Integrase C-Terminal Domain Induces TAR RNA Structural Changes Promoting Tat Binding”
# B1: SD/Psi (structured_RNA)
# RNA: GGGCGACUGGUCAGUACGCCAAAAAUUUUGACUAGCGGAGGCUAGAAGGAG
# B2: TAR-SS (structured_RNA)
# RNA: GGGUCUCUCUGGUUAGACCAGAUCUGAGCUGGGACUCUCUGGCUAACUAGGGAACCC
# B3: TAR (structured_RNA)
# RNA: GGGUCUCUCUGGUUAGACCAGAUCUGAGCCUGGGAGCUCUCUGGCUAACUAGGGAACCC
# B4: TAR-VSS (structured_RNA)
# RNA: GGGUCUCUCUGGUUAGACCAGAUCUGAGCGCUCUCUGGCUAACUAGGGAACCC
# B5: TAR-LS (structured_RNA)
# RNA: GGGUCUCUCUGGUUAGACCAGAUCUGAGCGCUGGGACGCUCUCUGGCUAACUAGGGAACCC
# How the values were obtained:
# [1] = test system: Tat (HIV-1 primary isolate 133); experiment: BLI; conditions: EMSA: 20 mM MES pH 6.0, 150 mM NaCl, 2 mM DTT, 2 mM MgCl2, BSA, 8% PEG8000, 37 C 30 min (IN-FLm 2 h at 4 C); BLI: 50 mM HEPES pH 7.5, 200 mM NaCl, 2 mM BME, 5% …
# [2] = molecular target: T1, IN-CTD (HIV-1, UniProt P12497 1367-1435); experiment: EMSA; EMSA: 20 mM MES pH 6.0, 150 mM NaCl, 2 mM DTT, 2 mM MgCl2, BSA, 8% PEG8000, 37 C 30 min (IN-FLm 2 h at 4 C); BLI: 50 mM HEPES pH 7.5, 200 mM NaCl, 2 mM BME, 5%; conditions: protein: recombinant, tags: N-terminal 6xHis, label: 5' 32P
# [3] = molecular target: T2, IN-CTD-dCT (HIV-1, UniProt P12497 1367-1417); experiment: EMSA; not affected by stem shortening; EMSA: 20 mM MES pH 6.0, 150 mM NaCl, 2 mM DTT, 2 mM MgCl2, BSA, 8% PEG8000, 37 C 30 min (IN-FLm 2 h at 4 C); BLI: 50 mM HEPES pH 7.5, 200 mM NaCl, 2 mM BME, 5%; conditions: protein: recombinant; tags: N-terminal 6xHis; label: 5' 32P; hairpin
# [4] = molecular target: T1, IN-CTD; experiment: BLI; 200 mM NaCl, 37 C; EMSA: 20 mM MES pH 6.0, 150 mM NaCl, 2 mM DTT, 2 mM MgCl2, BSA, 8% PEG8000, 37 C 30 min (IN-FLm 2 h at 4 C); BLI: 50 mM HEPES pH 7.5, 200 mM NaCl, 2 mM BME, 5%; conditions: protein: recombinant; tags: N-terminal 6xHis; label: 3' biotin; hairpin
# [5] = molecular target: T2, IN-CTD-dCT; experiment: as above; conditions: protein: recombinant; tags: N-terminal 6xHis; label: 3' biotin; hairpin
# [6] = molecular target: T3, IN-FLm (HIV-1 integrase, mammalian expressed) (HIV-1, UniProt P12497 1148-1435); experiment: EMSA; EMSA: 20 mM MES pH 6.0, 150 mM NaCl, 2 mM DTT, 2 mM MgCl2, BSA, 8% PEG8000, 37 C 30 min (IN-FLm 2 h at 4 C); BLI: 50 mM HEPES pH 7.5, 200 mM NaCl, 2 mM BME, 5%; conditions: protein: recombinant, tags: N-terminal Flag, label: 5' 32P
# [7] = molecular target: T2, IN-CTD-dCT; experiment: as above; conditions: protein: recombinant; tags: N-terminal 6xHis; label: 5' 32P; hairpin with bulge and hexaloop
# [8] = molecular target: IN-FL (integrase, E. coli) (HIV-1 NL4-3 (pNL4-3), UniProt P12497 1148-1435); experiment: as above; conditions: protein: recombinant; tags: N-terminal 6xHis; label: 5' 32P; hairpin with bulge and hexaloop
# [9] = molecular target: T3, IN-FLm (HIV-1 integrase, mammalian …); experiment: EMSA; similar to wild type; EMSA: 20 mM MES pH 6.0, 150 mM NaCl, 2 mM DTT, 2 mM MgCl2, BSA, 8% PEG8000, 37 C 30 min (IN-FLm 2 h at 4 C); BLI: 50 mM HEPES pH 7.5, 200 mM NaCl, 2 mM BME, 5%; conditions: protein: recombinant; tags: N-terminal Flag; label: 5' 32P; hairpin
# [10] = hairpin with bulge and hexaloop
molecule,measurement,setting,value
CGUCCAUCUGGUCAUCUAGUGAUAUCAUCG [Bt-RNA(30)-mer],Kd,[1],3840 nM
GGGCCAGAUCUGAGCCUGGGAGCUCUCUGGCCC [Bt-TAR],Kd,[1],1490 nM
B1,binding result,[2]; hairpin,binds
B2,binding result,[3],binds
GGGCCAGAUCUGAGCCUGGGAGCUCUCUGGCCC (structured_RNA) [Bt-TAR],Kd,[4],320 nM
same,Kd,[5],770 nM
GGGCACUGCUUAAGCCUCAAUAAAGCUUGCCUUGAGUGCUUCAAGUAGUG (structured_RNA) [polyA],binding result,[2]; hairpin,binds
CGUCCAUCUGGUCAUCUAGUGAUAUCAUCG (ssRNA) [RNA(30)-mer],binding result,[6]; weakly structured,binds
B3,binding result,[2]; [10],binds
same,binding result,[7],binds
same,binding result,[6]; [10],binds
same,binding result,[8],binds
GGGCUCGGCUUGCUGAAGCGCGCACGGCAAGAGGCGAG (structured_RNA) [DIS],binding result,[2]; hairpin,binds
B4,binding result,[3],binds
B5,binding result,[9],binds
